# Assay results taken from PMC5566547, “Nei-like 1 (NEIL1) excises 5-carboxylcytosine directly and stimulates TDG-mediated 5-formyl and 5-carboxylcytosine excision”.
# B1: 41-mer 5caC:G (dsDNA)
# DNA 1: GCTACCTACCTAGCAGGGGCCAGCTGTCCCACTGCTCGGAA
# DNA 2: TTCCGAGCAGTGGGACAGCTGGCCCCTGCTAGGTAGGTAGC
# modifications: 5-carboxylcytosine at position 20 of top strand
# B2: 41-mer 5OHC:G (dsDNA)
# DNA 1: B1 DNA 1
# DNA 2: B1 DNA 2
# modifications: 5-hydroxycytosine at position 20 of top strand
# Biological target: NEIL1 P2T (human, UniProt Q96FI4 1-390, P2T)
# Sequence (Q96FI4 whole entry P2T): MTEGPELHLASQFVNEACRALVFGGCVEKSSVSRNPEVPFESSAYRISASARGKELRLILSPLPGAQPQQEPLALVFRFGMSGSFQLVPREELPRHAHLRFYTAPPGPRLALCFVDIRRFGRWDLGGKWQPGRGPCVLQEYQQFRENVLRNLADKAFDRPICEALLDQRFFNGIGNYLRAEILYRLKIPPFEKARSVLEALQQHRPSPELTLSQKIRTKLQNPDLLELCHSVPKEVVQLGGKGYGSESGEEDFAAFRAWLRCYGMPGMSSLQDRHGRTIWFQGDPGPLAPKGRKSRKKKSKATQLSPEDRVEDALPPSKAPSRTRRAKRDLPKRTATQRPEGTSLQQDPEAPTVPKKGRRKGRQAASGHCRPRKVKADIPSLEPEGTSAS
# Experiment: EMSA; EMSA: 25 mM Tris-HCl pH 7.5, 100 mM NaCl, 1 mM DTT, 10 nM DNA, 1-200 nM NEIL1 P2T, on ice 30 min; 6% native PAGE, 0.5x TBE, 4 C
# Conditions: protein: recombinant; tags: C-terminal His6; label: 5'-32P top strand; blunt
row,Binder,binding result
1,B1,binds
2,B2,binds
